Consider 1 molecule from patent US20220242939A1 (BIOARCTIC, published 2022).

Non-standard residues stand in square brackets, D forms with d. No end group written: not given here. Ahx = NCCCCCC(=O)O

Assay [1] concerns the target T1, recombinant C-terminal ApoE fragment L198-HIS (ApoE-L198-H299-10xHIS) (human, UniProt P02649 216-317).
T1 construct: also called L198-HIS fragment
Nature of the assay: SPR (Biacore 8K), L198-HIS amine-coupled on CM5, antibody as analyte, bivalent analyte fit (KD1). As to the method:
(§1) Selectivity evaluation and KD determination of purified monoclonal antibodies by surface plasmon resonance: Binding interactions between the antigens and antibodies were evaluated by surface plasmon resonance (SPR) using a Biacore 8K instrument (GE Healthcare) according to standard procedures.
(§2) Selectivity evaluation and KD determination of purified monoclonal antibodies by surface plasmon resonance: The five purified monoclonal antibodies 6F4, 8B3, 12B1, 15F8 and 15H11 were evaluated for selectivity, and KD values for the target antigen were determined by surface plasmon resonance.
On the technique in general: Surface plasmon resonance follows binding to a sensor surface in real time, without labels.

The target in assay [2] is T1, recombinant C-terminal ApoE fragment …. Briefly: direct ELISA, L198-HIS coated at 0.1 µM. On the procedure: (§3) Selectivity evaluation of purified monoclonal antibodies by direct ELISA: The direct ELISA described below was used to evaluate the binding selectivity of the purified monoclonal antibodies produced in Example 14.
(§4) The screening was performed according to standard ELISA protocols. Briefly, 1 μg/ml solutions of BSA-conjugated neo-epitope peptides and negative control peptide, and 0.1 μM recombinant C-terminal ApoE fragment and full-length ApoE (Abcam, cat. no. ab50243) were prepared by dilution in PBS. 50 μl/well were added to an ELISA half-area 96 well microtiter plate, and the plate was sealed with adhesive sealer and incubated over night at 4° C. After discarding the solution, the plates were blocked with 150 μl/well of protein-free blocking solution (Pierce) for 1 h at room temperature with shake (600-900 rpm). The plates were washed four times with washing buffer containing 0.28 mM NaH₂PO₄, 2.5 mM Na₂HPO₄, 150 mM NaCl, 0.1% TWEEN®-20 and 0.0075% Kathon CG. Purified monoclonal antibodies of interest were 3-fold serially diluted with a starting dilution at 3 μg/ml (mixed 1:2 with dilution buffer (PBS with 0.1% BSA and 0.05% TWEEN®-20)). An anti-ApoE C-terminal antibody was used as a reference antibody (ApoE E-8 mouse monoclonal, Santa Cruz Biotechnology, cat. no. sc-393302). 50 μl/well were added into the ELISA plates and incubated for 2 h at room temperature with shake (600-900 rpm). The plates were washed four times as described previously. […] After another wash (as described previously), 50 μl/well of K-Blue® aqueous substrate (Neogen) were added, and the reaction was stopped after 5-15 min with 50 μl/well of 0.5 M […]. The optical density at 450 nm was read using an ELISA reader (Tecan).
(In general: ELISA stands for enzyme-linked immunosorbent assay.)

For assay [3] the target is unchanged. Nature of the assay: SPR (Biacore 8K), L198-HIS amine-coupled on CM5, antibody as analyte, bivalent analyte fit (kd1). As to the method: as §1, §2
For assay [4], the target named is T2, L198 N-terminal neo-epitope peptide LAGQPL-Acp-C (SEQ ID NO:52) conjugated to BSA (human, not fully specified (residue 8); printed as LAGQPL-Acp-C; also: C-terminal Cys conjugated to BSA carrier).
T2 construct: BSA carrier; also called L198-BSA peptide
T2 peptide: LAGQPL[Ahx]C
Briefly: direct ELISA, L198-BSA peptide coated at 1 µg/ml. As to the method:
as §3, §4

Assay [5] addresses T3, L198 N-terminal neo-epitope peptide LAGQPLQE-Acp-C (SEQ ID NO:54) conjugated to BSA (human, not fully specified (residue 10); printed as LAGQPLQE-Acp-C; also: C-terminal Cys conjugated to BSA carrier).
T3 construct: BSA carrier
T3 peptide: LAGQPLQE[Ahx]C
Briefly: direct ELISA after limiting dilution.

Assay [6] has as its target T4, full-length ApoE in human brain extract from Alzheimer's disease patients (human, UniProt P02649 19-317).
T4 construct: mature; Endogenous protein on Western blot or in solution (IP); also called ApoE full-length protein
Nature of the assay: Western blot of AD brain RIPA 2% SDS extract; monoclonal antibody at 2 ug/ml as primary antibody. (Immunoblotting shows a protein as a band on a membrane.)

Assay [7] concerns the target T1, recombinant C-terminal ApoE fragment …. Briefly: SPR (Biacore 8K), L198-HIS amine-coupled on CM5, antibody as analyte, bivalent analyte fit (ka1).

T1 sequence (P02649 other isoform, or with tags, fused parts or gaps limits assumed): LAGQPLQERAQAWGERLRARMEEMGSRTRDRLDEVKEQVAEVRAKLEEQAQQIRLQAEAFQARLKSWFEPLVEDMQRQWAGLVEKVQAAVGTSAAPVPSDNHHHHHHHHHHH
T4 sequence (P02649 19-317): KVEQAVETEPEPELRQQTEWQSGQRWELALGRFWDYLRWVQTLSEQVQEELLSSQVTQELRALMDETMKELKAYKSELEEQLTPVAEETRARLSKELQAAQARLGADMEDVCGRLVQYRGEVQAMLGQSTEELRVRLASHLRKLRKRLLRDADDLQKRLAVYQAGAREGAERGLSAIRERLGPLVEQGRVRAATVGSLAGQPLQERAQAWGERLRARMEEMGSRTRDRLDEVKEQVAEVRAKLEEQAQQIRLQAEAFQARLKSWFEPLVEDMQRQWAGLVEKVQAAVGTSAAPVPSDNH

B1: 8B3, monoclonal anti-L198 antibody (antibody, IgG2b, V domains shown)
VH: EVKVEESGGGVVQPGGSMKLSCLASGFTFRNYWMNWVRQSPEKGLEWVAQIRLKSDNYATRYAESVKGRFTISRDDSKSSVYLQMNNLRAEDTGTYYCSGHILLRYYALDFWGQGTSVTVSS
VL: DIVLTQSQKFMSTSVGDRVSVTCKASQNVYTDVAWYQQKPGQSPKGMIYSASYRYSGVPDRFTGSGSGTDFTLKISNVQSEDLAEYFCQQYNSFPYTFGGGTKLEIK
Turning to B1, the Kd in assay [1] stood at 12 nM. Besides, the EC50 (commonly the concentration needed to bring the measured effect to its halfway point) in assay [2] was found to be 1.3 ng/mL; in assay [4], 8.4 ng/mL. Moreover, the koff – broadly, a measure of how fast the partners let go of each other – in assay [3] amounted to 0.000302 s⁻¹. Moreover, the binding result in assay [5] is given as “binds”; in assay [6], “no binding (tested: 2 ug/ml (text))”. Also, the kon (in general, a measure of how fast the partners come together) in assay [7] was determined as 42000 M⁻¹ s⁻¹.
